Data reported in PMC3037364.

Target: TgAMA1, intact full-length integral membrane form (Toxoplasma gondii (endogenous in RH strain parasites)) (UniProt B6KAM0)
Chain of UniProt B6KAM0 (B6KAM0 67-569): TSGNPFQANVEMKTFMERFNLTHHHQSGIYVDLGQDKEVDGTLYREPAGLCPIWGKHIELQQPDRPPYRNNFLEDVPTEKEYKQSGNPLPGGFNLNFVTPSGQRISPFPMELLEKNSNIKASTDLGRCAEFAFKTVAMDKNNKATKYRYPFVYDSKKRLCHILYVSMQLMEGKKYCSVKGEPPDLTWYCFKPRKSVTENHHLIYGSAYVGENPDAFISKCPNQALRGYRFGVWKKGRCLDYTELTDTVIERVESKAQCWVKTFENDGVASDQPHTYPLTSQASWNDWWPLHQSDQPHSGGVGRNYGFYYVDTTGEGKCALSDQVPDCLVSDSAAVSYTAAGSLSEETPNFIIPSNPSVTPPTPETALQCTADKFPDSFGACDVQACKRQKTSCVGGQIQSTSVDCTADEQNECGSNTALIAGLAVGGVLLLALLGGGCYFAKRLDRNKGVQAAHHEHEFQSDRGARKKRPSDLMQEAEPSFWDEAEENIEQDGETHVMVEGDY

## GST-domain 3 (D3) of TgRON2 (domain or fragment)
  decrease in invasion efficiency of RHΔama1/AMA1-myc parasites (about 10% of wild-type TgAMA1 level) after pre-incubation with 2.5-5 µM GST-D3, relative to buffer control: 87%
